# T1: PARP-16 (Homo sapiens, UniProt Q8N5Y8)
# T1 construct: Asterisk=full-length proteins; made in house; host or cells: E. coli BL21 RIPL
# T1 sequence (Q8N5Y8 1-322): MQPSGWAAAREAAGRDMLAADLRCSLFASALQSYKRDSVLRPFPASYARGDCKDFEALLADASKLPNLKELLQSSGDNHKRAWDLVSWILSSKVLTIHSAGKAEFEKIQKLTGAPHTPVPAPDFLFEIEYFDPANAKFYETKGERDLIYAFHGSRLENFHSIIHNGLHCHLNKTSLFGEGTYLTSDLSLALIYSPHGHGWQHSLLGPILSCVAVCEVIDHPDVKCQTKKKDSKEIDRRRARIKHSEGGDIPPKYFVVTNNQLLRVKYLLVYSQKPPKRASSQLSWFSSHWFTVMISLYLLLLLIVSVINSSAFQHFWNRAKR
# What was measured:
# PARP-16 = target: T1, PARP-16; assay: 32P-NAD+ incorporation assay with recombinant GST-PARP-16 (self-modification); type: biochemical; conditions: of wild-type GST-PARP-16; purified from E. coli
# Source text: Human PARP-16 (ADP-ribosyl)ates itself and contains histidine and tyrosine residues at amino acid 152 and 182 within its catalytic domain, residues thought to be critical for enzymatic activity (FIG. 1B) (Kleine et al., Mol. Cell 32: 57-69, 2008). To determine if these residues are required for enzymatic activity, GST-PARP-16 and GST-PARP-16^H152Q Y182A were expressed and purified in E. coli, and ^32P-NAD^+ incorporation assays performed.
# (§1) For ER microsome-based assays including NAD^+ incorporation and immunoprecipitation, ER microsomes were fractionated from HeLa cells via isopycnic flotation method as described in Stephens et al., Methods Mol Biol. 419: 197-214, 2008, and incubated with 100 μM β-NAD^+ (MP Biomedicals) and 2.5 μCi of ^32P-NAD^+ (Perkin Elmer) in a PARP reaction buffer (50 mM HEPES pH 7.4, 150 mM NaCl, 1 mM MgCl2, 10 mM EGTA, 1 mM DTT, 0.1 mM Na3VO4, 50 mM NaF, 5 mM β-glycerophosphate, 1 μM ADP-HPD, and protease inhibitor cocktail) at 25° C. for 30 min. The ratio between unlabeled and labeled NAD^+ was kept constant upon titration of NAD^+ concentration. The ^32P-labeled ER microsomes were then lysed by addition of Triton X-100 at 1%. Proteins were immunoprecipitated, eluted in a 1× Laemmli sample buffer by boiling at 65° C. for 10 min, and then analyzed using autoradiogram and immunoblotting. […]
# PERK = assay: NAD+ incorporation assay with ER microsome-purified PERK and recombinant GST-PARP-16; type: biochemical, human; conditions: PERK purified from ER microsomes of unstressed PARP-16 knockdown cells
# Source text: We examined NAD^+ incorporation onto GFP-PERK or GFP-IRE1α via EMAA in cells transfected with control or PARP-16 siRNA, treated with or without ER stress inducing drugs. Low level (ADP-ribosyl)ation of GFP-PERK and GFP-IRE1α was detected in control knock-down cells in the absence of drug (FIGS. 6C and 6D), likely due to the previously described UPR induction upon PERK or IRE1α expression (Bertolotti et al., Nat. Cell Biol. 2: 326-332, 2000; Kimata et al., Curr. Opin. Cell Biol. 23: 135-142, 2011).
# as §1
# GFP-PERK = assay: PERK kinase assay after (ADP-ribosyl)ation of ER microsomes by GST-PARP-16; type: biochemical, human; conditions: versus GST-PARP-16 samples; depending on NAD concentration
# Experimental: We examined PERK and IRE1α kinase activity in response to (ADP-ribosyl)ation by PARP-16 via self-phosphorylation assays. ER microsomes purified from GFP-PERK- or GFP-IRE1α-expressing cells were washed with 1M NaCl to remove bound PARP-16, returned to physiological salt buffer, split into duplicate reactions, and incubated with unlabeled NAD^+ plus either GST-PARP-16 or GST-PARP-16^H152Q Y182A, or ^32P-NAD^+ plus either recombinant protein. (ADP-ribosyl)ated GFP-PERK or GFP-IRE1α were extracted from the microsomes and purified under 1 M NaCl conditions to remove added recombinant PARP-16 proteins. Reactions containing unlabeled NAD^+ were incubated with ^32P-ATP, and reactions containing ^32P-NAD^+ were incubated with unlabeled ATP. […] Phosphorylation by GFP-IRE1α at the molecular weight of GST-PARP-16 and GST-PARP16^H152Q Y182A was also detected (FIG. 7E).
# PERK and IRE1α kinase assays were performed as described herein. […] Proteins were immunoprecipitated, eluted in 1× Laemmli sample buffer by heating at 65° C. for 10 min, and then analyzed using autoradiogram and immunoblotting.
molecule,measurement,setting,value
"GST-PARP-16^H152Q Y182A: recombinant GST-PARP-16 catalytically inactive mutant, His152 and Tyr182 mutated, purified in E. coli (protein, UniProt Q8N5Y8 1-322, looked up, variant H152Q Y182A, GST fusion) Protein …: MQPSGWAAAREAAGRDMLAADLRCSLFASALQSYKRDSVLRPFPASYARGDCKDFEALLADASKLPNLKELLQSSGDNHKRAWDLVSWILSSKVLTIHSAGKAEFEKIQKLTGAPHTPVPAPDFLFEIEYFDPANAKFYETKGERDLIYAFQGSRLENFHSIIHNGLHCHLNKTSLFGEGTALTSDLSLALIYSPHGHGWQHSLLGPILSCVAVCEVIDHPDVKCQTKKKDSKEIDRRRARIKHSEGGDIPPKYFVVTNNQLLRVKYLLVYSQKPPKRASSQLSWFSSHWFTVMISLYLLLLLIVSVINSSAFQHFWNRAKR",32P-NAD+ incorporation activity relative to wild-type,PARP-16,~6%
same,ADP-ribosylation of PERK,PERK,not
same,reduction of phosphorylation by PERK at the molecular weight of GST-PARP-16,GFP-PERK,5-10 fold
